Experimental findings from US12540161B2, “Linkers” (BicycleTx Limited, priority 2020, dated 2026) are described below.

Data set [1] can be described thus: in vitro. The settings on record: rat, plasma.
The nature of data set [2]: in vitro. The settings on record: human, plasma.
Data set [3] in a line: in vitro. The note with it: human, plasma, pH 7.4.
Method: (§1) Pooled frozen plasma was thawed in a water bath at 37° C. Plasma was centrifuged at 4000 rpm for 5 min and the clots were removed if any. The pH will be adjusted to 7.4±0.1 if required. 1 mM stock solution was prepared with DMSO. Propantheline (positive control) was prepared by making a 100 μM working solution by diluting 5 μL of the stock solution (10 mM) with 495 μL ultra pure water. 100 μM working solutions of test compounds were made up by diluting 10 μL of the stock solution (1 mM) with 90 μL DMSO. 98 μL of blank plasma was spiked with 2 μL of dosing solution (100 μM) to achieve 2 μM of the final concentration in duplicate and samples were incubated at 37° C. in a water bath. At each time point (0, 1, 2, 4, 6 and 24 hr), 400 μL of 200 ng/mL tolbutamide and labetalol in 100% MeOH was added and mixed thoroughly to precipitate proteins. Sample plates were centrifuged at 4,000 rpm for 15 min. An aliquot of supernatant (150 μL) was transferred from each well before submitting for LC-MS/MS analysis.
(§2) The % remaining test compound after incubation in plasma was calculated using following equation: Remaining=100×(PAR at appointed incubation time/PAR at T0 time)
(§3) where PAR is the peak area ratio of analyte versus internal standard (IS).
(§4) The appointed incubation time points are T0 (0 hr), Tn (n=0, 1, 2, 4, 6, 24 hr). The half-life (T½) was calculated from a log linear plot of concentration versus time.
(§5) When the % remaining value at the maximal incubation time, which was 24 hr in this study, was higher than 75%, it is considered to be within the acceptable experimental variation.
A further data set in a line: in vivo. The settings on record: rat, plasma.
For data set [4] the following is noted: rat.
Data set [5] is described as follows: in vitro. The note with it: rat, plasma, pH 7.4.
Method: as §1, §2, §3, §4, §5
Data set [6] is described as follows: in vitro. The note with it: mouse, plasma.

Bounds are passed on as bounds.

By fraction unbound is commonly meant the share of the substance not bound to proteins or other matrix. What is called half-life is the time needed for the level to fall by half in the phase considered. Read a high half-life as slow decline. Take `CC[C@H](C)[C@@H]([C@@H](CC(=O)N1CCC[C@H]1[C@H](OC)[C@@H](C)C(=O)N[C@H](C)[C@@H](O)c1ccccc1)OC)N(C)C(=O)[C@@H](NC(=O)[C@H](C(C)C)N(C)C(=O)OCc1ccc(NC(=O)[C@H](CCCNC(N)=O)NC(=O)[C@H](Cc2cccc3ccccc23)NC(=O)[C@H](CCC(=O)O)NC(=O)Cn2cc(CCC(=O)NCCC(=O)N(C)CC(=O)N(C)CC(=O)N(C)CC(=O)N(C)CC(=O)N(C)CC(=O)N(C)CC(=O)N(C)CC(=O)N(C)CC(=O)N(C)CC(=O)N(C)CC(=O)N[C@@H](C)C(=O)N[C@H]3CN(C)Cc4cc5cc(c4)CN(C)C[C@@H](C(N)=O)NC(=O)[C@H](C(C)(C)C)NC(=O)[C@H](CC(=O)O)NC(=O)[C@H](Cc4ccc(O)cc4)NC(=O)[C@H](Cc4ccccc4)NC(=O)[C@H](CC(=O)O)NC(=O)[C@H](CCC(=O)O)NC(=O)[C@H](CSC5)NC(=O)[C@@H](C)NC(=O)[C@H](Cc4cccc5ccccc45)NC(=O)[C@H](CCC(=O)O)NC(=O)[C@H](CC(N)=O)NC(=O)[C@@H](C)NC3=O)nn2)cc1)C(C)C` [BCY10984, MMAE-PAB-(Cit-1Nal-Glu)-BCY3900]: the unbound share (fraction unbound) is 0.04 in “in vitro [1]” (PPB (% Unbound), rat (Table 9)); 0.035 in “in vitro [1]” (Plasma protein binding (% Unbound) Rat); 0.031 in the data set “in vitro [2]”; 0.002 in “in vitro [6]”. In addition, the half-life at 2 μM in “in vitro [3]” is over 57.8 h; in “in vitro [5]”, 53.8 h. In addition, the half-life in “in vivo” is 1.83 h. Further, the AUC ratio in data set [4] worked out at 0.0000936.
